From PMC3794980 come the findings set out here.

Assay in all cases: radioligand binding
Test [1] concerns the target HLA-DR DRB1*0101 (human (endogenous in EBV transformed cell lines)).
The target of test [2] is HLA-DR DRB1*0802 (human (endogenous in EBV transformed cell lines)).
The target in test [3] is HLA-DR DRB1*1101 (human (endogenous in EBV transformed cell lines)).
Test [4] concerns the target HLA-DR DRB1*1501 (human (endogenous in EBV transformed cell lines)).
Test [5] deals with HLA-DR DRB4*0101 (human (endogenous in EBV transformed cell lines)).
Test [6] addresses HLA-DR DRB1*0901 (human (endogenous in EBV transformed cell lines)).
The target of test [7] is HLA-DR DRB5*0101 (human (endogenous in EBV transformed cell lines)).
The target of test [8] is HLA-DR DRB1*0701 (human (endogenous in EBV transformed cell lines)).
In test [9] the target is HLA-DR DRB1*0301 (human (endogenous in EBV transformed cell lines)).
The target in test [10] is HLA-DR DRB3*0101 (human (endogenous in EBV transformed cell lines)).
For test [11], the target named is HLA-DR DRB1*0401 (human (endogenous in EBV transformed cell lines)).

As for DENV3 Envelope 51-65 (peptide), the IC50 – broadly, the concentration at which inhibition is half-maximal – in test [1] turned out to be 80.6 nM; in [2], 130 nM; in test [3], 40.4 nM; in [4], 982 nM; in test [5], 154 nM.
DENV3 Envelope 121-135 (peptide) had an IC50 in [4] of 404 nM.
Take DENV3 Envelope 171-185 (peptide): the results for the IC50 in test [1], in [2] and in [5] were 62.6 nM, 91.2 nM and 787 nM, respectively.
As to DENV3 Envelope 231-245 (peptide), the IC50 in test [1] stood at 5.11 nM; in test [6], 48.4 nM; in [4], 5.25 nM; in test [7], 24.6 nM.
As to DENV3 Envelope 236-250 (peptide), the IC50 in [1] stood at 340 nM; in [8], 560 nM; in test [2] it was 419 nM; in test [7] it was 29.6 nM.
As for DENV3 Envelope 251-265 (peptide), the half-maximal inhibitory concentration (IC50) in test [1] turned out to be 588 nM; in test [7], 722 nM.
With DENV3 Envelope 261-275 (peptide), the IC50 in test [8] amounted to 82.1 nM. This lies in the double-digit nanomolar range.
As to DENV3 Envelope 281-295 (peptide), the IC50 came to 16.7 nM in test [9], 652 nM in test [4] and 31.1 nM in [10].
Consider DENV3 Envelope 301-315 (peptide), for which the IC50 in test [11] came to 26.6 nM; in test [2] it was 58.9 nM.
For DENV3 Envelope 306-320 (peptide), the IC50 in [11] was determined as 530 nM.
On to DENV3 Envelope 316-330 (peptide), for which the IC50 in test [3] was 153 nM; in test [4], 361 nM.
In the case of DENV3 Envelope 366-380 (peptide), the IC50 in test [8] was found to be 552 nM; in [2], 762 nM.
Turning to DENV3 Envelope 376-390 (peptide), the IC50 in test [1] came out at 476 nM; in test [2], 84.6 nM; in [4], 448 nM; in test [10] it was 15.3 nM.
Consider DENV3 NS1 29-43 (peptide), for which the IC50 in test [10] came out at 10.6 nM; in [7], 22.8 nM.
For the substance DENV3 NS1 33-47 (peptide), the IC50 was 22.4 nM in [10] and 916 nM in test [5].
DENV3 NS1 69-83 (peptide) had an IC50 in [10] of 50.2 nM.
Take DENV3 NS1 93-107 (peptide): in test [8], the IC50 was found to be 483 nM. In other words, the sub-micromolar range.
In the case of DENV3 NS1 121-135 (peptide), the half-maximal inhibitory concentration (IC50) in test [1] was 355 nM; in [2], 45.5 nM; in test [5], 382 nM.
As for DENV3 NS1 133-147 (peptide), in [10], the IC50 came out at 62.3 nM.
For the substance DENV3 NS1 193-207 (peptide), the IC50 in test [10] came to 24.3 nM; in test [5] it was 180 nM.
Take DENV3 NS1 229-243 (peptide): the results for the IC50 in [9], in [11] and in [10] were 170 nM, 178 nM and 733 nM, respectively.
For DENV3 NS1 233-247 (peptide), in that order: 72.6 nM, 87 nM and 159 nM.
Consider DENV3 NS1 241-255 (peptide), for which, in test [1], the IC50 came to 50.7 nM.
DENV3 NS1 261-275 (peptide) showed a concentration for half-maximal inhibition (IC50) in [5] of 666 nM.
In [10], DENV3 NS1 269-283 (peptide) registered an IC50 of 71.3 nM.
As for DENV3 NS1 293-307 (peptide), the figures for the IC50 in test [8] and in test [5] were 83.2 nM and 793 nM, respectively.
As for DENV3 NS1 297-311 (peptide), the IC50 in test [1] was 228 nM; in test [11], 484 nM; in test [8] it was 262 nM; in test [2], 561 nM; in test [4] it was 736 nM.
As for DENV3 NS1 305-319 (peptide), the IC50 in [9] worked out at 841 nM.
For DENV3 NS1 313-327 (peptide), the IC50 in [5] was determined as 503 nM.
DENV3 NS3 53-67 (peptide): in test [7], the IC50 amounted to 329 nM.
With DENV3 NS3 57-71 (peptide), the IC50 in test [1] is 882 nM; in test [4], 196 nM.
Substance DENV3 NS3 69-83 (peptide) displayed an IC50 in test [4] of 29.5 nM.
For DENV3 NS3 73-87 (peptide), in [7], the IC50 came to 70.7 nM. That is a double-digit nanomolar value.
On to DENV3 NS3 77-91 (peptide), for which the IC50 in test [6] came out at 268 nM; in test [4] it was 52.1 nM; in test [5], 708 nM.
For DENV3 NS3 105-119 (peptide), the IC50 in test [1] is 49 nM; in [2], 175 nM; in test [6] it was 407 nM; in [5], 843 nM; in test [7] it was 177 nM.
With DENV3 NS3 109-123 (peptide), the results for the IC50 in test [1] and in [2] were 148 nM and 557 nM, respectively.
In the case of DENV3 NS3 113-127 (peptide), the IC50 in test [1] is 226 nM; in test [11], 17.9 nM.
For the substance DENV3 NS3 121-135 (peptide), the half-maximal inhibitory concentration (IC50) in test [9] was found to be 8.64 nM.
Same read-out and setting: the figure for DENV3 NS3 125-139 (peptide) is 47.2 nM.
For the substance DENV3 NS3 137-151 (peptide), the IC50 was found to be 843 nM in [1] and 502 nM in test [4].
For DENV3 NS3 181-195 (peptide), the values for the IC50 in [4] and in test [5] were 891 nM and 67.8 nM, respectively.
As for DENV3 NS3 209-223 (peptide), the IC50 in [5] was found to be 5.06 nM.
In the case of DENV3 NS3 241-255 (peptide), the IC50 in [8] stood at 525 nM; in [7], 16.7 nM.
For DENV3 NS3 313-327 (peptide), the IC50 in [2] was found to be 39.7 nM.
The substance DENV3 NS3 345-359 (peptide) had an IC50 in test [10] of 31.8 nM. That is a double-digit nanomolar value.
With DENV3 NS3 349-363 (peptide), the figures for the IC50 in [4] and in test [10] were 608 nM and 221 nM, respectively.
Consider DENV3 NS3 357-371 (peptide), for which the half-maximal inhibitory concentration (IC50) was 15.9 nM in test [1]; 436 nM in [9]; 29.5 nM in test [8]; 100 nM in [6]; 15.7 nM in [4]; 711 nM in [10]. Moreover, the results for the IC50 in test [5] and in test [7] were 759 nM and 273 nM, respectively.
In the case of DENV3 NS3 381-395 (peptide), the IC50 in test [10] was 399 nM.
In the case of DENV3 NS3 389-403 (peptide), the IC50 in [3] turned out to be 676 nM.
As to DENV3 NS3 393-407 (peptide), the IC50 in test [8] was found to be 456 nM.
As for DENV3 NS3 409-423 (peptide), the IC50 is 470 nM in test [9], 168 nM in test [10] and 50.3 nM in [7].
For the substance DENV3 NS3 413-427 (peptide), the IC50 in test [9] worked out at 261 nM; in [10], 96.1 nM.
In test [10], DENV3 NS3 417-431 (peptide) returned an IC50 of 632 nM.
Still for that read-out and setting: the figure for DENV3 NS3 429-443 (peptide) is 5.72 nM.
As for DENV3 NS3 605-619 (peptide), the IC50 in test [2] was determined as 36.8 nM; in test [4], 28.1 nM; in test [7] it was 19.6 nM.
In test [3], DENV3 NS5 29-45 (peptide) gave an IC50 of 289 nM. This counts as sub-micromolar.
Regarding DENV3 NS5 39-55 (peptide), the IC50 was found to be 749 nM in test [10] and 563 nM in test [5].
Regarding DENV3 NS5 45-61 (peptide), the IC50 worked out at 453 nM in test [8], 82.5 nM in test [3], 8.53 nM in test [5] and 449 nM in test [7].
For DENV3 NS5 165-181 (peptide), the IC50 in test [7] came to 19.9 nM.
In [5], DENV3 NS5 268-284 (peptide) yielded an IC50 of 869 nM.
Take DENV3 NS5 284-300 (peptide): the IC50 in test [9] was found to be 9.34 nM; in test [11], 306 nM; in test [10], 17.1 nM.
As to DENV3 NS5 290-306 (peptide), the 50% inhibitory concentration (IC50) in [1] was determined as 299 nM. This lies in the sub-micromolar range.
In turn, DENV3 NS5 295-311 (peptide) registered an IC50 in test [10] of 980 nM.
DENV3 NS5 301-316 (peptide) had an IC50 in test [10] of 536 nM. This IC50 lies about 1.8-fold lower than the previous one.
Take DENV3 NS5 306-322 (peptide): the concentration for half-maximal inhibition (IC50) in test [2] was 70.2 nM.
The same measure, in the same setting: the same measure for DENV3 NS5 330-346 (peptide): 4.01 nM.
The substance DENV3 NS5 336-352 (peptide) showed an IC50 in [5] of 747 nM.
On to DENV3 NS5 447-463 (peptide), for which the concentration for half-maximal inhibition (IC50) in [7] was determined as 25 nM.
In the case of DENV3 NS5 495-511 (peptide), the IC50 in test [11] was determined as 14.9 nM; in test [8], 190 nM; in [6] it was 448 nM; in test [7], 723 nM.
With DENV3 NS5 501-517 (peptide), the IC50 in test [1] amounted to 6.98 nM; in test [11], 73.6 nM; in test [8] it was 17.5 nM; in [2] it was 836 nM; in test [6], 351 nM.
In the case of DENV3 NS5 511-527 (peptide), the IC50 was 56.7 nM in [5] and 611 nM in test [7].
DENV3 NS5 570-586 (peptide) had a half-inhibitory concentration (IC50) in [7] of 27.8 nM.
For the substance DENV3 NS5 582-598 (peptide), the IC50 in test [3] was 106 nM.
Same read-out and setting: the same measure for DENV3 NS5 588-604 (peptide): 124 nM.
Consider DENV3 NS5 636-652 (peptide), for which the IC50 in [8] was determined as 352 nM; in test [4] it was 453 nM.
As for DENV3 NS5 642-658 (peptide), the IC50 was found to be 166 nM in [1]; 775 nM in test [9]; 665 nM in test [3]; 59.4 nM in test [4]; 5.07 nM in test [7].
With DENV3 NS5 658-674 (peptide), the IC50 in [2] worked out at 453 nM.
Take DENV3 NS5 670-686 (peptide): the IC50 in test [5] is 971 nM; in test [7] it was 478 nM.
DENV3 NS5 780-795 (peptide) had an IC50 in test [5] of 168 nM.
Take DENV3 NS5 838-854 (peptide): the figures for the IC50 in test [6] and in test [10] were 680 nM and 79.2 nM, respectively.
